Key:
FGFR1 = FGFR1 (UniProt P11362); test: phosphorylation enrichment, bacterial display (enrichment ratio); higher = better substrate or ligand; peptides without Tyr show the background
AncSZ = test: as above
EPHB2 = EPHB2 (UniProt P29323); test: as above
EPHB1 = EPHB1 (UniProt P54762); test: as above
Fes = Fes (UniProt P07332); test: as above
Fyn = Fyn (UniProt P06241); test: as above
c-Src = test: as above
Fer (mouse) = test: as above
Hck = Hck (UniProt P08631); test: as above
MERTK = MERTK (UniProt Q12866); test: as above
FGFR3 = FGFR3 (UniProt P22607); test: as above
Chain of FGFR3 (P22607 whole entry, looked up): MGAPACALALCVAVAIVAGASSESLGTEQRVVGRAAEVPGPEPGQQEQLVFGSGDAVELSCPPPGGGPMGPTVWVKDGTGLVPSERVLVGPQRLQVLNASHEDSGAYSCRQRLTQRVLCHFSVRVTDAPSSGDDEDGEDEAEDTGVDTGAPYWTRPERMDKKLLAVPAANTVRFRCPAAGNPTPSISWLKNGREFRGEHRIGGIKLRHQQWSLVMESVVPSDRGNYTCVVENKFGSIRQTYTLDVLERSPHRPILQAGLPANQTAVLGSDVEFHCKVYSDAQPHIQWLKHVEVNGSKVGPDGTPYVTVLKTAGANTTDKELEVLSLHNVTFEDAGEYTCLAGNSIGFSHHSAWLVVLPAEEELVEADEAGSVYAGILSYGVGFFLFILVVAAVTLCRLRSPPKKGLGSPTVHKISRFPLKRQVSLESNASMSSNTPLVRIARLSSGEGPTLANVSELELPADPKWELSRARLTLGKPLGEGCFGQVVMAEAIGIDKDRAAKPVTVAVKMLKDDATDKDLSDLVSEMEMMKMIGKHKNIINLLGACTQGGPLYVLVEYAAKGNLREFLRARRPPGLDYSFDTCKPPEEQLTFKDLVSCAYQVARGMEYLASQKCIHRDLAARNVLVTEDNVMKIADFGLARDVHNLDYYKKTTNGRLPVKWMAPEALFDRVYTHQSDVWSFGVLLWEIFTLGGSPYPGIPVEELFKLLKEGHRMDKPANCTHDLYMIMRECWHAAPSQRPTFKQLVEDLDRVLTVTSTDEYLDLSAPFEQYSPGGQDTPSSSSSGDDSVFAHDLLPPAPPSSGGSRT

c-Abl (mouse) = test: as above
Jak2 = Jak2 (UniProt O60674); test: as above
Grb2 SH2 = Grb2 SH2 (UniProt P62993); test: SH2 binding enrichment of the phosphorylated peptide, bacterial display (enrichment ratio); higher = better substrate or ligand; peptides without Tyr show the background
c-Src SH2 = test: as above
SHP2-C SH2 = test: as above
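Wherever SH2 binding enrichment of the phosphorylated peptide, bacterial display is given: peptide library displayed on the E. coli surface as eCPX fusions, selected cells deep-sequenced, score is each peptide's frequency after selection divided by its frequency in the input.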
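Wherever phosphorylation enrichment, bacterial display is given: 11-residue human phosphosite peptides and single-mutation variants displayed on the E. coli surface, counted by deep sequencing, each peptide's frequency after selection divided by its frequency in the unselected input library; frequency after pTyr selection over input frequency; kinase dosed for 20-30% of maximal phosphorylation in three min.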

Chain of Hck (P08631 whole entry, looked up): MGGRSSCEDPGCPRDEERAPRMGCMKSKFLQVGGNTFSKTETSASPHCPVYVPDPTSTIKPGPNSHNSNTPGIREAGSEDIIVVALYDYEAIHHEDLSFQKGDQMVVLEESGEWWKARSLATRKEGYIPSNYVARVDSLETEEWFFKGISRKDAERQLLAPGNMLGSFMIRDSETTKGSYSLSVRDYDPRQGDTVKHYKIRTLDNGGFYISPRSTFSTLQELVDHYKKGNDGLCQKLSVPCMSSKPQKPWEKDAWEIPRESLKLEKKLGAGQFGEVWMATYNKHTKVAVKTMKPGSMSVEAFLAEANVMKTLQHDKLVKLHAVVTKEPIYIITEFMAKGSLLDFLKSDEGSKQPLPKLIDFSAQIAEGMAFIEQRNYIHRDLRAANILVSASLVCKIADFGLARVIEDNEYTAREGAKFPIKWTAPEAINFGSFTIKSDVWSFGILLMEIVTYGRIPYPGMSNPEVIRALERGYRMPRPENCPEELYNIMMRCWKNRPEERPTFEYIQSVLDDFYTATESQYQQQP
Chain of Fyn (P06241 whole entry, looked up): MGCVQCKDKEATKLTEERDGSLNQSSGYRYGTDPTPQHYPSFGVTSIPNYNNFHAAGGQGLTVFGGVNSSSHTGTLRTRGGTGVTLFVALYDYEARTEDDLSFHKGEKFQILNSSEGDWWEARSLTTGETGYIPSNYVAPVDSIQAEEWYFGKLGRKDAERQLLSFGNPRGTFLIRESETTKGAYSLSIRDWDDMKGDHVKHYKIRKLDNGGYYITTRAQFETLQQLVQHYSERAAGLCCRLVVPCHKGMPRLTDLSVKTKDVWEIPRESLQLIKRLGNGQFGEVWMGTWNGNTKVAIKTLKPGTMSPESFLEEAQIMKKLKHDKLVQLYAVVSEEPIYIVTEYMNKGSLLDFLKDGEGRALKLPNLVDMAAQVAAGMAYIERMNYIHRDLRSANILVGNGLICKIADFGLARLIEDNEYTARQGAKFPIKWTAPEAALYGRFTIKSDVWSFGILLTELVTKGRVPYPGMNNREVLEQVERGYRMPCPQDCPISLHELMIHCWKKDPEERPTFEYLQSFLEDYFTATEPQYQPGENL
Chain of EPHB1 (P54762 whole entry, looked up): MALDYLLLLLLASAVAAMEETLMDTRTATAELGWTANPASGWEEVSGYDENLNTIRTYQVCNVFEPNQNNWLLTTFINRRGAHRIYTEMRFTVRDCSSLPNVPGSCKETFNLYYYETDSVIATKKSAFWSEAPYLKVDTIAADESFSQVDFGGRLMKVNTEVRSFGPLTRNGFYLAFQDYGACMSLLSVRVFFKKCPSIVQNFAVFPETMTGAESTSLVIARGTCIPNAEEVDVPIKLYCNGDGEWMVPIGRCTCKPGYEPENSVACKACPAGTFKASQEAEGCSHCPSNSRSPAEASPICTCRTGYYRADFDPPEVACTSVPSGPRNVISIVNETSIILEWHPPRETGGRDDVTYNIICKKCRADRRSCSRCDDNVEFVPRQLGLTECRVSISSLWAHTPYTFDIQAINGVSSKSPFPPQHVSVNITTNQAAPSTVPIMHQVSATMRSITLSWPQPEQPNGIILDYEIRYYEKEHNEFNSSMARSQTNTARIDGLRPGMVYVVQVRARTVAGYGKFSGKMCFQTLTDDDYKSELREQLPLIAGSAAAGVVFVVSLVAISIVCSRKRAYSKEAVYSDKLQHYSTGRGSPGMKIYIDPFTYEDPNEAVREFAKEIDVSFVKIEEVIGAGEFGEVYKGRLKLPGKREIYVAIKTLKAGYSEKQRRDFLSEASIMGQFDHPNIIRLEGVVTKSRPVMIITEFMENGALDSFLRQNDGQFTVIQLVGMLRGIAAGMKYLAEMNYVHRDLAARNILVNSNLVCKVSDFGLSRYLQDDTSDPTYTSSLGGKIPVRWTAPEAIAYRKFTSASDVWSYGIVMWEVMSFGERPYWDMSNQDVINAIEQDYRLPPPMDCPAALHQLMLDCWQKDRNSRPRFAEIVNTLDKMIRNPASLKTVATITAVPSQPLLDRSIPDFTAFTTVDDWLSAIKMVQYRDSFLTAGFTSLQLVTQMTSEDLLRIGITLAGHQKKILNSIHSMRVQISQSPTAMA
Chain of Fes (P07332 whole entry, looked up): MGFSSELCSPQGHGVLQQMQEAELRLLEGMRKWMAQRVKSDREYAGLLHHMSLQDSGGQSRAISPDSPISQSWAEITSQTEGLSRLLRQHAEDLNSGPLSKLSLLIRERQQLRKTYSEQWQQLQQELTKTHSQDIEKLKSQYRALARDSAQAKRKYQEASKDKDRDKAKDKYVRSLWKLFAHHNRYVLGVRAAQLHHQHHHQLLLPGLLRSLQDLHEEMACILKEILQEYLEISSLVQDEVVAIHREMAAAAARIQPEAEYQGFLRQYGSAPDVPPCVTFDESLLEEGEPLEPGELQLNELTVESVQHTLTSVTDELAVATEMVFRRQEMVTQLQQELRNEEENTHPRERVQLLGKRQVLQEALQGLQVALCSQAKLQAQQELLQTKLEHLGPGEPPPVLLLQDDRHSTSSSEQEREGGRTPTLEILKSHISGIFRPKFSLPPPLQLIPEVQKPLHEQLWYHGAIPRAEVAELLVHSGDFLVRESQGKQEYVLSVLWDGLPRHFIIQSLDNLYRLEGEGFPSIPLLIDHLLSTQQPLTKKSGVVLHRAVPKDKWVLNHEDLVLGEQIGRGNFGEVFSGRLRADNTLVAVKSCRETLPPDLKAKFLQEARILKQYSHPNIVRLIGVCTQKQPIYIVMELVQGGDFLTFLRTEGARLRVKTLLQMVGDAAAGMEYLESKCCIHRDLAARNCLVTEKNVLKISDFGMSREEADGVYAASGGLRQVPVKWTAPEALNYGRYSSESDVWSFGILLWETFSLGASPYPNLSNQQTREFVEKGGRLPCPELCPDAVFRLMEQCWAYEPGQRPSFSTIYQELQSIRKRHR
Chain of EPHB2 (P29323 whole entry, looked up): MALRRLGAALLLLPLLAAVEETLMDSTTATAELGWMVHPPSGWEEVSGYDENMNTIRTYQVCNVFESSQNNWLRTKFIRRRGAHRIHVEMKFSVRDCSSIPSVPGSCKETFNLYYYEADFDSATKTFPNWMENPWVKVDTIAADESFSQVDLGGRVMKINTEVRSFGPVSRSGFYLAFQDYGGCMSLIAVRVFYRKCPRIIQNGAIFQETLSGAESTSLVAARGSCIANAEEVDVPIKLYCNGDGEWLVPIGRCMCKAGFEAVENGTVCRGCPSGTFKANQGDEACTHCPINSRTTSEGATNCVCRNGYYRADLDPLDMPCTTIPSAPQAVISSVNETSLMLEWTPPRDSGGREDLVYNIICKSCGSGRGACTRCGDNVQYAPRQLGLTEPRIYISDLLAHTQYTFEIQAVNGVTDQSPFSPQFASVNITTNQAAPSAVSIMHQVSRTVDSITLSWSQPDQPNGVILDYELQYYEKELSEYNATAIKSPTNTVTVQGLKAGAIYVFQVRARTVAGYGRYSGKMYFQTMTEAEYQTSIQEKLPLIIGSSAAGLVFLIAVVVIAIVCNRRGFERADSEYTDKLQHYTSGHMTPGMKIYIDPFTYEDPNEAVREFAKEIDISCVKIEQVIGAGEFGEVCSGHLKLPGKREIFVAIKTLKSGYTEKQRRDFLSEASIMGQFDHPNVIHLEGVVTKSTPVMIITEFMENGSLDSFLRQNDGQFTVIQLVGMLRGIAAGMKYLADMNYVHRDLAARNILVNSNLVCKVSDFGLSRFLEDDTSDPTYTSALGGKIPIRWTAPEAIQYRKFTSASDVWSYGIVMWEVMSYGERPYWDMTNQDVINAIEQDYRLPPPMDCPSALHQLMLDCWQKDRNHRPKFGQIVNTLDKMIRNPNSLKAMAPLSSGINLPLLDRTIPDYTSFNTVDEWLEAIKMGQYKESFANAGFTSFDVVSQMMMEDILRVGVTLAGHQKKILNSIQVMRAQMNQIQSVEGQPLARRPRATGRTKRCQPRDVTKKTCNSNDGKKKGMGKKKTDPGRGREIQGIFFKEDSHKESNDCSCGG

SH2 binding enrichment (Grb2 SH2)	SH2 binding enrichment (c-Src SH2)	SH2 binding enrichment (SHP2-C SH2)	Sequence	phosphorylation enrichment (FGFR1)	phosphorylation enrichment (AncSZ)	phosphorylation enrichment (EPHB2)	phosphorylation enrichment (EPHB1)	phosphorylation enrichment (Fes)	phosphorylation enrichment (Fyn)	phosphorylation enrichment (c-Src)	phosphorylation enrichment (Fer (mouse))	phosphorylation enrichment (Hck)	phosphorylation enrichment (MERTK)	phosphorylation enrichment (FGFR3)	phosphorylation enrichment (c-Abl (mouse))	phosphorylation enrichment (Jak2)
0.901	0.691	1.01	ILTLKYPIERG [ACTA1_Y71_H75R]	0.572	0.669	0.663	0.542	0.812	0.554	0.479	0.407	0.49	0.442	0.655	0.581	0.675
0.921	0.42	0.684	LFVDVYGPSVP [NUBPL_Y109_D105Y_YF]	0.482	1.23	0.545	0.576	1.34	1.16	1.47	0.748	1.5	0.355	0.709	0.717	1.17
0.931	0.946	0.569	VKANTYEKFWP [GATM_Y100_YF]	0.317	0.627	0.374	0.74	0.793	1.47	2.69	0.595	1.07	1.8	0.487	0.704	0.717
0.683	0.453	0.408	KKKKQYKDKFL [CASK_Y708_YF]	0.572	0.893	0.634	0.687	0.642	0.701	0.739	0.502	0.589	0.782	0.55	0.699	0.724
1.33	2.01	1.73	CTAIHYNFMCN [TP53_Y234_T231A_YF]	0.598	0.814	0.526	0.622	0.909	0.442	0.525	0.461	0.597	0.38	0.614	0.735	0.863
0.856	0.473	0.693	DSSIRYLQEIF [FGG_Y135_YF]	0.632	0.868	0.5	0.576	0.924	0.559	0.497	0.417	0.527	0.542	0.604	0.545	0.755
4.57	0.635	0.643	DMQTLYVNTAA [SMCHD1_Y403]	0.471	0.647	0.64	0.428	0.588	0.485	0.418	0.482	0.578	0.513	0.478	0.734	0.518
0.869	0.651	0.649	SNKLFYQLEQE [PDPR_Y110_YF]	0.588	1.25	0.738	0.628	1.39	1.45	1.91	0.583	0.641	0.508	0.692	0.791	1.3
1.03	2.85	0.811	YDCGMYSHLQG [LGR4_Y848]	1.04	1.47	1.29	1.5	1.21	2.36	3.69	2.87	5.59	7.03	1	2.38	0.944
0.75	0.341	0.599	PHQTIYGALMI [FGF23_Y70_S71G]	0.57	0.849	0.711	0.679	1.07	10.6	5.96	3.41	7.87	0.796	0.838	1.36	0.721
0.723	0.437	0.909	THLAPYSDELR [APOA1_Y190]	0.46	0.722	0.582	0.51	0.968	0.51	0.434	0.442	0.481	0.467	0.594	0.521	0.688
1.22	1.02	1.37	PGIRMYQVQYN [LRFN1_Y454]	0.67	1.06	0.92	0.93	1.39	0.815	0.727	0.446	0.503	0.764	0.863	0.995	1.24
0.814	0.499	1.05	MDNQEYKDAYK [BRDT_Y331]	0.485	0.932	0.402	0.546	1.12	0.417	0.368	0.456	0.474	0.445	0.652	0.677	0.901
0.767	0.482	0.603	SVTCTSSPALN [TP53_Y126_Y126S]	0.476	1.3	0.675	0.626	1.34	0.562	0.47	0.538	0.526	0.436	0.863	0.856	1.18
0.747	0.378	0.798	PFDAEYGGGGG [AKR1B10_Y316_N313D]	1.16	1.81	1.48	0.843	1.5	1.13	0.918	0.784	1.14	0.783	1.09	1.31	1.66
0.983	0.425	0.709	NIWDSYTTNKV [GNB1_Y85_I80N]	0.497	1	0.488	0.515	0.9	0.416	0.437	0.414	0.497	0.387	0.658	0.656	0.663
0.796	0.52	0.795	HLVLNYGVCVC [JAK2_Y613]	0.91	2.33	1.27	1.61	2.31	1.1	0.779	0.99	0.985	1.44	1.8	1.49	1.99

SH2 binding enrichment (Grb2 SH2)	SH2 binding enrichment (c-Src SH2)	SH2 binding enrichment (SHP2-C SH2)	Sequence	phosphorylation enrichment (FGFR1)	phosphorylation enrichment (AncSZ)	phosphorylation enrichment (EPHB2)	phosphorylation enrichment (EPHB1)	phosphorylation enrichment (Fes)	phosphorylation enrichment (Fyn)	phosphorylation enrichment (c-Src)	phosphorylation enrichment (Fer (mouse))	phosphorylation enrichment (Hck)	phosphorylation enrichment (MERTK)	phosphorylation enrichment (FGFR3)	phosphorylation enrichment (c-Abl (mouse))	phosphorylation enrichment (Jak2)
0.993	0.606	1.18	KPGVNYFFQVS	0.85	1.15	0.577	0.695	1.38	0.538	0.408	0.582	0.588	0.508	1.09	0.801	1.28
0.649	0.555	0.484	GRLGEYDIDEV [SMS_Y134_V132G]	0.551	1.3	0.859	0.909	1.45	0.789	0.643	0.688	0.647	0.494	1	0.881	1.27
0.789	0.498	0.728	GGRIDYIAGLD [APRT_Y60]	0.447	0.898	0.417	0.85	0.829	0.409	0.422	0.521	0.52	0.46	0.545	0.582	0.708
1.6	1.2	1.43	YPKAHYHWLVL [APTX_Y214_R213H]	2.54	0.823	0.482	0.505	1.15	0.368	0.487	0.571	0.501	0.61	1.94	0.846	1.16
0.873	0.571	0.731	DPEATYTTSGS [EPHA2_Y772_G777S]	0.425	0.889	0.518	0.476	0.981	0.518	0.633	0.48	0.598	0.34	0.596	0.617	0.694
1.04	1.08	0.646	PMDTFYDSTRG [DYNC2H1_Y2231_YF]	0.714	1.08	1.04	0.919	1.05	0.982	0.664	1.43	1.71	0.501	0.806	0.582	0.892
0.803	0.589	0.785	TYEPNYGTVKR [RAPGEF6_Y1447_Q1452R]	0.391	0.567	3.31	1.34	0.614	4.41	3.06	1.65	3.66	0.868	0.43	0.656	0.604
0.775	3.05	4.42	ELRGTYTSLQQ [KIF3C_Y574]	0.489	0.705	0.481	0.398	0.869	0.978	1.39	0.428	0.956	0.434	0.535	0.684	0.777
0.846	0.716	0.557	YQGGTYSKAST [FGG_Y380]	0.423	0.867	0.419	0.33	0.526	0.449	0.424	0.387	0.424	0.43	0.43	0.388	0.373
0.919	0.353	0.455	RESFKYLPSSL [CXXC1_Y218_F219L_YF]	0.329	0.561	0.395	0.512	0.862	0.469	0.429	0.347	0.381	0.286	0.431	0.567	0.837
2.3	1.86	1.61	KKGIVYIFNGR [ITGAV_Y404]	0.417	0.768	0.507	0.403	0.957	0.452	0.366	0.437	0.423	0.428	0.501	0.565	0.868
1.22	0.615	0.629	DGMADCSDPSY [CDC5L_Y459_Y459C]	0.465	1.12	0.595	0.607	1.18	0.492	0.425	0.52	0.543	0.412	0.754	0.755	1.06
0.659	0.349	0.663	SVTCTYSPALI [TP53_Y126_N131I]	0.534	1.64	0.779	0.906	1.8	0.646	0.817	1.09	0.804	0.602	0.954	1.13	1.52
0.875	0.579	1.51	PGNIVYSSLCG [BCOR_Y90]	0.892	1.38	0.987	0.914	1.62	3.13	5.73	1.18	5.25	1.6	1.02	1.83	1.65
1.25	0.917	0.872	GRTGHYLCNAC [GATA1_Y223_D218G]	0.436	0.445	0.287	0.4	0.631	0.332	0.296	0.32	0.392	0.481	0.433	0.375	0.446
0.904	1.79	0.671	MASTSYDYCRV [BST2_Y6]	1.27	1.11	3.51	4.88	0.68	0.481	0.577	2.69	0.905	0.904	0.851	0.956	0.687

Source: the supplement of paper PMC10065799, “High-throughput profiling of sequence recognition by tyrosine kinases and SH2 domains using bacterial peptide display” (eLife, 2023)
